Reference: patent US8688427B2, “Enzyme catalysts for diels-alder reactions” (University of Washington, priority 2008, dated 2014)

Key:
Type in all cases: biochemical
[1] = Kinetic characterization: reaction velocity versus diene and dienophile concentration
Procedure: (A) Dependence of reaction velocity on diene concentration for different fixed dienophile concentrations. The diene concentration was varied from 3.0 to 0.18 mM with a fixed concentration of 100 mM (⋄), 66 mM (Δ), 44 mM (⋄), 30 mM (◯), 20 mM (◯), or 13 mM (●) dienophile (B) Dependence of reaction velocity on dienophile concentration for different fixed diene concentrations. The dienophile was varied from 100 to 13.0 mM with a fixed concentration of 3 mM (♦), 2 mM (▴), 1.3 mM (∇), 0.9 mM (Δ), 0.6 mM (⋄), 0.4 mM (□), 0.26 mM (◯), or 0.18 mM (●) […]. Reactions were carried out with 20 μM protein in PBS at 298 K.
The kinetics of the DA—20—10 catalyzed reaction was characterized by measuring the dependence of the reaction velocity on the concentration of both diene and dienophile. The effective molarity (kcat/kuncat) of DA—20—10 is 100 M, and the rate enhancement (kcat/(kuncat*KM_diene)) in the presence of saturating dienophile and limiting diene is 1.0×10^5. At high substrate concentrations DA—20—10 proceeds for more than 30 turnovers before the enzyme loses activity. At higher enzyme concentrations more than 80% of the diene substrate is converted to product.
The errors represent the calculated 95% confidence interval. The parameter a describes the cooperativity of binding between the two substrates: a value greater than one indicates negative cooperativity, whereas a value lower then one indicates positive cooperativity. α could not be determined for DA—20—00. Kinetic parameters for catalytic antibodies 7D4 and 4D5 were taken from (10, 17).

[2] = Plate assay of crude cell lysate, second round of active site optimization; details: Combinatorial Mutation Results; 4 colonies/Kunkel assayed
Procedure: Since it was unreasonable to prepare the 176 enzyme variants in large scale, a plate assay was developed in which colonies directly from a Kunkel mutagenesis (8) reaction could be screened. Kunkel mutagenesis reactions were transformed directly into BL21(DE3)™ (Invitrogen) in order to generate each of the desired mutants. Four colonies from each plated reaction was picked and grown at 37° C. in 0.5 mL of LB-Kanamycin overnight. […]. This culture was grown for 2-3 hours at 37° C., after which 50 μL of 10 mM IPTG was added to each well (0.5 mM Final) in order to induce expression. The cells were then grown for 24 hours at 18° C., harvested, and stored at −20° C. until ready for assaying. To assay, crude cell lysate was prepared by resuspending the cells in 500 uL of PBS and lysing through 3 freeze/thaw cycles (15 minutes at −80° C., 40 minutes at 25° C.), followed by centrifugation at 4000 rpm for 30 minutes. […] Samples from each reaction were then quenched and product detected using a liquid chromatography-tandem mass spectroscopy.
To help remove some of this noise, samples showing WT activity were discarded if at least 2 of the other colonies picked from that Kunkel reaction did show an effect on activity (either greater or less than WT). […] The relative effect of each mutation was calculated. […]

[3] = Substrate specificity, LC-MS of product peak area formed per hour; details: 0.2 mM diene, 10 mM dienophile, 60 μM protein, PBS, 298K
Procedure: FIG. 19 illustrates the substrate specificity of DA—20—10 and a single mutant of DA—20—10, H287N. Reactions were carried out with 0.2 mM diene 1 (FIG. 1), and 10 mM of one of the six dienophiles depicted in PBS at 298K in the absence or presence of 60 μM DA—20—10 or DA—20—10_H287N. The depicted values in the figure are the mean (bars) and standard deviation (error bars) of four independent measurements of the product peak area (arbitrary units) formed per hour, determined using a liquid chromatography-mass spectroscopy assay.
To experimentally determine substrate specificities each dienophile from FIG. 19 was either purchased or synthesized. The dienophiles were assayed in the presence or absence of 60 μM DA—20—10 or the H287N mutant over 30 hours with 10 mM dienophile and 0.2 mM diene at 298K in a PBS solution. A sample of the reaction was taken at four different time points, quenched, and filtered as previously described. To detect product a liquid chromatography-mass spectroscopy assay was used. […] The average area of each detected peak formed per hour was used to determine the relative amount of product formed with and without enzyme.
Besides stereoselectivity, the level of control over a chemical reaction by a designed enzyme is reflected by its substrate specificity. […] The activity against each of the substrates was measured using a liquid-chromatography mass spectroscopy assay.

[4] = Production run and effects of knocking out the catalytic residues; details: higher enzyme concentrations: 1 mM diene, 50 mM dienophile, 200 μM protein, PBS, 298K
Procedure: The reaction was carried out in 1 mM diene, 50 mM dienophile, 200 μM enzyme, in PBS at 298K. The proteins assayed are DA—20—10 (υ), Y121F (▴), Q195E (x), and tela scaffold (*), uncatalyzed (λ).
To determine whether the observed activity depends on the designed active site, we investigated the contributions of the designed catalytic residues in DA—20—10 to catalysis. Glutamine 195 was mutated into a glutamate (Q195E) and tyrosine 121 was mutated into a phenylalanine (Y121F). We had originally incorporated a glutamine rather than a glutamate at this position, despite the fact that the carboxylate should make a stronger hydrogen bond with the diene carbamate. This hydrogen bond should increase the energy of the diene HOMO (and thus decrease the energy gap with the dienophile LUMO), and more greatly stabilize the transition state. However, we were concerned that the substantial free energy cost of desolvating the carboxylate would considerably reduce binding affinity for the diene. […] The Y121F mutation decreases catalytic activity by 27-fold, consistent with the removal of a hydrogen bond that contributes to dienophile binding, stabilizes the dienophile LUMO, and is enhanced in the transition state.
Timepoints were taken and measured as previously described over a period of 60 hours.

B1: DA_20_10: DA_20_04 with A272N, Q149R, A173C (protein)
chain: MEIPVIEPLFTKVTEDIPGATGPVFDKNGDFYIVAPYVEVNGKPAGEILRIDLKTGKKTVICKPEVNGYGGIPIGCQCDRDANQLFVADMRLGLLVVQTDGTFEEIAKKDSEGRRMQGCAYCAFDYEGNLWITAPAGEVAPADFTISLREKFGSIYCFTTDGQMIQVDTAFQCPAGIAVRHMNDGRPYQLIVAEQPTKKLWSYDIKGPAKIENKKVWGHIPGTHKGGAAGMDFDEDNNLLVANWGSSHIEVFGPDGGQPKMRIRCPFEKPANLHFKPQTKTIFVTEHENNAVWKFEWQRNGKKQYCETLKFGIFGSLEHHHHHH
modifications: Enzyme catalyst for Diels-Alder reaction
notes: DA_20_04 with A272N, Q149R, A173C
[1]
  increase in overall catalytic efficiency over the original design model DA_20_00: roughly 2200 fold
[1]; DA_20_10 at 298K, antibodies at 310K
  kcat relative to those of 7D4 and 4D5: 10 fold
[1]; saturating dienophile and limiting diene, versus 7D4 and 4D5
  rate enhancement (kcat/(kuncat*KM_diene)) relative to either antibody: 20 fold
[1]; versus 7D4 and 4D5
  effective molarity (kcat/kuncat) relative to either antibody: 20 fold
[2]
  Relative Effect on Activity: 7.96
[3]
  substrate specificity (in words): highly favor the substrate for which it was designed
[4]
  diene substrate converted to product: more than 80%
